The chains are these.
B1: Eterna 6102128 (Same State NG 3) (ssRNA)
RNA: AAAACAUGAGGAUCACCCAUGUAAAUAUCGGUUAAUUGUUGUGAGGAUAUACUAAAUUUUAAGAAGUAGAAGGCACUGGGUACA
B2: Eterna 7754813 (Same State - Tryptophan B) (ssRNA)
RNA: UAGUAGCUCUCGGCCGCCACUCCUCAGUGAUGUUGAGAUAUUAAGAGCCAAUUGGCUCAUAUAAAGAGGACCGGGAGAGCUACAU
B3: Eterna 7723566 (Exclusion - Tryptophan A) (ssRNA)
RNA: AUGUCGUUAUAGUGAGUGAUGUUCACUGUGCGAGGACCGGUACGGCCGCCACUCGAGAGUGGUGGACACUGAGUCACUCUGACAC
B4: Eterna 6451279 (Small Loop Same State NG 3) (ssRNA)
RNA: ACAUGAGGAUCACCCAUGUAAAGCGAGGAUAUUUCACUGCACAUGAGGUUCGCCCAUGUUCUGCGGAAGAAGGUGCAAAUAAUU
B5: Eterna 12517 (Exclusion 2) (ssRNA)
RNA: AAUGGCUGAGGAUAUACACUCACGUCUAAAAGGUUCAAAUGACAUGAGGAUCACCCAUGUAGAAGGCAGCCCGA
B6: Eterna 7685224 (Exclusion - Theophylline B) (ssRNA)
RNA: AAUUUAUUAACUGAUACCAGACUUAAUUAAUUGUAAAUUACUAGUGAUGUUAGUGAUUCUGUCCCUUGGCAGCAGUAUUUAUUAA
B7: Eterna 7734297 (Exclusion - Theophylline B) (ssRNA)
RNA: GGCCGAUGGUGCGAUACCAGCUUGAGUGUACUGGCCAGGUACAUGAGGAUCACCCAUGUAAGCCCUUGGCAGCGCGUCAGAGGCC
B8: Eterna 7734632 (Exclusion - FMN B) (ssRNA)
RNA: CAUACGCAUGGAGGAUAUGAGAUUUUUCAUAUUAUUUUUUAUUCUCAGUGAUGUUGGGAUUUAUAAUCAGAAGGCCAUGUGUAUG
B9: Eterna 6147986 (Exclusion NG 1) (ssRNA)
RNA: GCAAUGUGAUAAGGAUAUCCAAUGGCAUCCCUAGGAGAAGGUAUCACAUGAGGAUCACCCAUGUGAAGGACGGGUUAUCGCAAA
B10: Eterna 7739921 (Exclusion - Arginine B) (ssRNA)
RNA: UGAUAGGACAGAAGGAGCGGCAGUGAUGUUGCCAAAAGGGUAAGGUGUCAAAAGACACCCUGCCAGGUAGGUCGCUGUCCUAUCU
B11: Eterna 6453430 (Inverted Small Loop Exclusion NG 3) (ssRNA)
RNA: AGGUAAGACUUAAUUGUGCUGGUGAGAAGGCAAAUGGUUGUGAUUAACAUGAGGAUCACCCAUGUUGAGGAUAUCAUCGGUAUC
B12: Eterna 6423537 (Small Loop Exclusion NG 1) (ssRNA)
RNA: GAGUAGAUCCGAGGAUAUACAAUCCGGAAACGGUACAUGAGGAUCACCCAUGUAGAAGGCGGAUCUACAGGUACUAAAGUACCU
B13: Eterna 1268 (Exclusion - Tryptophan B) (ssRNA)
RNA: AAGCCAUACUCGGCCGCCACUUACUUCGUUGCAGUGAUGUUGCACACGAAUCCGUCAUAGCAAAUAAGGACCGGGAGAUAUACCG
B14: Eterna 7712196 (Same State - FMN B) (ssRNA)
RNA: AGAGUUAUGCGAGGAUAUGCAGUUAGUACUCAAAGAGUACUAACGCAGAGUGAUGUUCUGUGAAACGCAGAAGGUGCAUAACUCA
B15: Eterna 7722469 (Exclusion - FMN A) (ssRNA)
RNA: AUUUAGACGAGUGAUGUUCGUGUUAUUACAGAGGAUAUGCGUAAUUGCAGAAGGCUGUAUUUAUAUAUGUUAUGUAGUUUUAAAA
B16: Eterna 6108976 (Same State NG 2) (ssRNA)
RNA: GUAGCAUACCGAGGAUAUUCAUAUAAUAAAUAAACAUGAGGACCACCCAUGUGGCGAAAGCCUUGGGAGAAGGCGGAAUGCUAC
B17: Eterna 12408 (Exclusion 4) (ssRNA)
RNA: CAUUUGUGAGGAUAUCAGGUGUGCUAGCGUACUGGUACAUCUGAGAAGGCACAUGAGGAUCACCCAUGUUUCUU
B18: Eterna 14907 (Exclusion 2) (ssRNA)
RNA: GUGUAGUUAGGAUAUGCUGGAAUCUAGCGAAGCUAGGUUCCACAUGAGGAUCACCCAUGUAGAAGGGACUACAC
B19: Eterna 5942428 (Same State NG 3) (ssRNA)
RNA: GUGGUCAGACAUGAGGAUCACCCAUGUGGAAUAAAUAACACACAGGAUAUCAAAUAUAAAAUAUAUGAGAAGGGUGGAUUGGUG
B20: Eterna 7687729 (Same State - FMN B) (ssRNA)
RNA: AUUUUUAACUGAGGAUAUCGAAUUUAUGUAGUGAUGUUACUUUAAAUUAAAAUUUUAAUUUCUUAACGAGAAGGCAGAAUAAUUA
B21: Eterna 15907 (Sensor v3, turn-off variant 2) (ssRNA)
RNA: AGUAACCGUCACGAAAGUGAUGGUUACGCAAGUAAAUGUACAUGAGGAUCACCCAUGUCCUCAUUUGCUCGUCUUAU
B22: Eterna 12520 (Exclusion 2) (ssRNA)
RNA: AAACAGGGAGGAUAUACAUAGAUCCUCUAACCUAAUUGGUCACAUGAGGAUCACCCAUGUAGAAGGCCCUUAGG
B23: Eterna 7684757 (Exclusion - Tryptophan B) (ssRNA)
RNA: AAUAAAAUCACGGCCGCCACUGAUUACCAUAUUAGGAGUGAUGUUCCUAUGACUAUAUAAUUUAACAGGACCGGGUGAAUAUUUA
B24: Eterna 6148811 (Same State NG 2) (ssRNA)
RNA: UGAAUCAAUACAGGAUAUGGUGACGCACAUGAGGAUCACCCAUGUCCGCAGCGUGCUCAGCACGCCCAGAAGGGUAUUGAUCCG
B25: Eterna 7682758 (Exclusion - Arginine A) (ssRNA)
RNA: AAUUUACAUUAAUUAUUUAAAGGUUCAGAAGGAGCGUGAAUUAACACAGGUAGGUCGCUGAGCGAGUGAUGUUCGCUAUAUACUA
B26: Eterna 7687231 (Exclusion - Arginine A) (ssRNA)
RNA: AAUGUACAAGUGAUGUUUGUACUUUCCGAAGGAGCGUCUAAUAAGACAGGUAGGUCGCGGAUUCUCUAAAUUAUCAGGUCAUUAA
B27: Eterna 12456 (Exclusion 4) (ssRNA)
RNA: GUAAAGUGAGGAUAUGGUAAAUUAAUUAUUAAUUAAUUAAUCCAGAAGGCACAUGAGGAUCACCCAUGUAAUUG
B28: Eterna 7709711 (Same State - Tryptophan B) (ssRNA)
RNA: UAUAUAGUGACGGCCGCCACUAUUGUGAUGUAGUUGUUAGAGUGAUGUUUUGUUGUUUGAUUUUGUAGGACCGGGUUAUAUGUUA
B29: Eterna 7685253 (Same State - Tryptophan B) (ssRNA)
RNA: AGACGCCAGUCGGCCGCCACUCACAGCAGUGAUGUUGCUGAAAAUCUAGAAGAGUGAUGUUCUUAGAGGACCGGGACUCCAGUCG
B30: Eterna 7682834 (Same State - Tryptophan A) (ssRNA)
RNA: UGUCAUGGAAACAUGAACGUUGAUGUUCGACGAGGACCGGUACGGCCGCCACUCGAGUAAUAGUCAGUGAUGUUGACUUGUUUAA
B31: Eterna 7670643 (Exclusion - Theophylline B) (ssRNA)
RNA: UGACAUUGCUCAGAUACCAGACGUGAGCAUCAGCCAUGUGCCAACAAGUACAAAAUAAAUGUCCCUUGGCAGCUGAGCAAUGUCU
B32: Eterna 6398784 (Exclusion NG 1) (ssRNA)
RNA: CCUGCACCUCAAGGAUAUCCAGUCGAAACGACUGGAGAAGGUGAGGAUCACCCACCUAGCCUGACGAAAGUCAGGCAUGCAGGA
B33: Eterna 7672999 (Same State - Tryptophan B) (ssRNA)
RNA: UGGUACAUGGCGGCCGCCACUUCACGUAAAAUAAAAACUUGAGGAUCACCCAAGUAAUAAGUUGGGAGGACCGGGUCAUGUACCU
B34: Eterna 7714851 (Same State - Theophylline B) (ssRNA)
RNA: AGAACUGUCUGAGAUACCAGCCAGGAAGUGAUGUUUCCAGCUCCACGAAAGUGGAGCCAUGGCCCUUGGCAGCUCAGACAGUUCA
B35: Eterna 6393566 (Inverted Small Loop Exclusion NG 3) (ssRNA)
RNA: AGCACGAAAGUGCAACGAUGUACGAGAAGGACAUGAGGAUCACCCAUGUUGCUGUAACUGCUUAUGUAGGAUAUCGUACAUCGA
B36: Eterna 1541 (Same State - FMN A) (ssRNA)
RNA: AAGUGGGAACGGCCCAAUAAAGUGUUUGUCAAGGAUAUUAUUCACAUAAGAAGGUGACAGACCACCUCCGGAGUGAUGUUUUGGA
B37: Eterna 7643338 (Exclusion - Arginine B) (ssRNA)
RNA: UUAUAUUAUCGAAGGAGCGUCACAUGAGGAUCACCCAUGUACAUGAGGAUCACCCAUGUGUGGCAGGUAGGUCGCGAUAUAUAAC
B38: Eterna 7681870 (Exclusion - Theophylline B) (ssRNA)
RNA: CCUAUCUCAUACGAUACCAGUCAACGAGUGAUGUUCGAAUAAAUAAAUUUGCCAAAUAAUGACCCUUGGCAGCGUAUGGGAUAGG

One may read the Kd as the concentration at which binding is half-saturated. A high value points to lower affinity.

For this series, the target named is MS2 coat protein, dlFG mutant (Escherichia phage MS2, UniProt P03612, del68-81insG). The experiment in a line: 4 mM Mg2+; no ligand; RNA-MaP array; 100 mM Tris-HCl pH 7.5, 80 mM KCl, 4 mM MgCl2, 0.1 mg/mL BSA, 1 mM DTT, 0.01 mg/mL yeast tRNA, 0.01% Tween-20; protein 1.5 nM to 3 uM; 37 C (Table S3). Particulars: chain copies: 2; label: tethered by stalled RNA polymerase.
On to B1, for which the affinity, expressed as Kd, was 24.4 nM.

B2 registered a Kd greater than 3000 nM. B3 gave a dissociation constant (Kd) greater than 3000 nM. In turn, B4 showed a dissociation constant (Kd) of 82.6 nM. Turning to UUUUCAGAACUUAUUU (ssRNA) [Eterna 3 (ShortRNAControl)], the Kd is greater than 3000 nM. The molecule B5 displayed a dissociation constant (Kd) of 103 nM. With B6 the figure was greater than 3000 nM; with B7, 10.6 nM. With B8, the equilibrium dissociation constant (Kd) is greater than 3000 nM. The figure for B9 is 54.1 nM; for B10 it is greater than 3000 nM; for B11 it is 500 nM. B12 displayed a Kd of 5.63 nM. With B13, the dissociation constant Kd is greater than 3000 nM.

In turn, B14 had a Kd greater than 3000 nM.

Turning to B15, the Kd was greater than 3000 nM. With B16 the figure was 1050 nM. B17 had a Kd of 15.8 nM. Turning to B18, binding was characterised by a dissociation constant (Kd) of 253 nM.

On to B19, for which the Kd is 387 nM. Compared with the last molecule, the Kd is about 1.5-fold higher. The molecule B20 returned a Kd greater than 3000 nM. B21 registered a Kd of 204 nM. This counts as sub-micromolar.

With B22, binding was characterised by a dissociation constant (Kd) of 11.8 nM. Compared with the last molecule, the Kd is about 17-fold lower. B23 had a dissociation constant (Kd) greater than 3000 nM.

Molecule B24 returned a dissociation constant Kd of 816 nM. Regarding B25, the dissociation constant (Kd) was greater than 3000 nM. For the molecule B26, the Kd was greater than 3000 nM. As for AAAGCAUGACGCGCUUUCAAGCGUGGCGAGUAUAAA (ssRNA) [Eterna 2 (No-binding control)], the Kd was greater than 3000 nM. The figure for B27 is 24.8 nM; for B28 it is greater than 3000 nM.

B29 displayed a Kd greater than 3000 nM. For the molecule B30, the equilibrium dissociation constant (Kd) is greater than 3000 nM. Regarding B31, binding was characterised by a dissociation constant (Kd) of 16.6 nM.

Molecule B32 displayed a Kd of 14.4 nM.

B33 registered a Kd of 19 nM.

As for B34, the Kd was greater than 3000 nM.

B35 yielded a Kd of 5.14 nM. With B36 the figure was greater than 3000 nM. The molecule B37 registered a Kd of 226 nM. That is a sub-micromolar value. The figure for B38 is greater than 3000 nM.
